Experimental data: patent US20090082410A1

Target: angiotensin II type 1A receptor
Assay: cell-based or functional assay

## arrestin-GFP
  arrestinGFP translocation response (Fgrains, INCell Analyzer), U2OS cells, 1:4 dilution of GRK2-C20 baculovirus, no ligand: 305 Fgrains
  arrestinGFP translocation response (Fgrains, INCell Analyzer), U2OS cells, 1:256 dilution of GRK2-C20 baculovirus, no ligand: 77 Fgrains
  arrestinGFP translocation response (Fgrains, INCell Analyzer), U2OS cells, no added GRK2-C20, no ligand: 18 Fgrains
